Assay results as given in patent US20230203185A1 (ECO ANIMAL HEALTH, published 2023).
Changes are numbered by the printed parent chain.

T1: pCD163-SRCR1-9-huFc (porcine, UniProt Q2VL90 47-1028, limits assumed)
T1 construct: also called pCD163:SRCR1-9-Fc; pCD163SRCR1-9-Fc; not shown: human Fc (huFc)
T1 sequence: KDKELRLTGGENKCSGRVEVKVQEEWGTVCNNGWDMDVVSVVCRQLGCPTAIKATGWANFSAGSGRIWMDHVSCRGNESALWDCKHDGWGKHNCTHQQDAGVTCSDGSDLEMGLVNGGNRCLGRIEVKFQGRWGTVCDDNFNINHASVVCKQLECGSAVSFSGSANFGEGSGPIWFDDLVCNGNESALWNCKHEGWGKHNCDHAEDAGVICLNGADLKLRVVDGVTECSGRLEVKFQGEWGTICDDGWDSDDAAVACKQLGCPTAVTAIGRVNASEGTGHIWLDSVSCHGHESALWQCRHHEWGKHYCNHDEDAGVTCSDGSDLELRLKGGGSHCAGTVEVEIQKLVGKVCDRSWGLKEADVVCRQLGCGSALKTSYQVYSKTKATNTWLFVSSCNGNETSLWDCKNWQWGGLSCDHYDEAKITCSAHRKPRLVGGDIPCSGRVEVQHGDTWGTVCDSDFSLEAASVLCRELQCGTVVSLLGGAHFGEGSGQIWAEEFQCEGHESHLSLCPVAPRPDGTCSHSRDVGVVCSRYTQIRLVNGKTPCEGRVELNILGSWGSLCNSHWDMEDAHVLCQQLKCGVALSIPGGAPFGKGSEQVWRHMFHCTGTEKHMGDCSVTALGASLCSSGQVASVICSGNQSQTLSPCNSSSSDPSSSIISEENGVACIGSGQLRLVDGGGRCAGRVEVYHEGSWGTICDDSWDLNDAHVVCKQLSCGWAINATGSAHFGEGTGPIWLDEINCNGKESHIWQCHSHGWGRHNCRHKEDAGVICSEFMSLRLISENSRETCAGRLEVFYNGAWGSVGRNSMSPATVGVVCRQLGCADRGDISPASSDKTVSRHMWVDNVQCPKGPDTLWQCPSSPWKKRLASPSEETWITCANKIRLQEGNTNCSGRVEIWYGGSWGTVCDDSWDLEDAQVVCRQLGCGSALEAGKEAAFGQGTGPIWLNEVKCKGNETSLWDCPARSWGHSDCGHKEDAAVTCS

B1: VHH 015 (2G01) (VHH)
VHH: QVQLVESGGGLVQAGDTLRLSCTASGRTFSSYSMGWFRQAPGKEREFVAAITWNGYITNYADSVKGRFTISRDNTKNTVFLQMNSLKPEETAVYYCAATTFSTTSPISRTYNYWGPGTQVTVSS
notes: Llama single domain antibody; also called 150(#15); VHCDR3 150(#15); not shown: tags: c-myc tag in periplasmic extract (ELISA, FACS); FLAG and His tags in purified VHH (SPR, infection assays)
B2: VHH 001 (1B02) (VHH)
VHH: EVQLVESGGGLVQAGGSLSLSCAASGGTLAMYAMSWFRQAPGKDRKFVAAINTSGRYSRYADSVKGRFTISRDNAKNTATLQMNSLEPEDTAVYYCAATDKGNWALAMSYDYWGQGTQVTVSS
notes: Llama single domain antibody; also called 144(#1); VHCDR3 144(#1); not shown: tags: c-myc tag in periplasmic extract (ELISA, FACS); FLAG and His tags in purified VHH (SPR, infection assays)
B3: VHH 012 (2C07) (VHH)
VHH: QLQLVESGGGLVQAGGSLRLSCVASGRTFSRYAMGWFRQAPGKEREFVAAIAWSTGSTYYANSVKGRFAISGDNAKNTVYLQMNSLKPEDTAVYYCAAETRYCSGFGCLDPRTYGSWGQGTQVTVSS
notes: Llama single domain antibody; also called 41(#12); VHCDR3 41(#12); not shown: tags: c-myc tag in periplasmic extract (ELISA, FACS); FLAG and His tags in purified VHH (SPR, infection assays)
B4: VHH 017 (3D03) (VHH)
VHH: QLQLVESGGGLVQPGGSLRLSCAASGFTLDDYTIGWFRQAPGKEREGVSCINSITSNTYYADSVKGRFTISRDNAKNTVYLQMNSLTAEDTAIYYCAADSGLFSGSSCLKYRAMRFGSWGQGTQVTVSS
notes: Llama single domain antibody; also called 29(#17); VHCDR3 29(#17); not shown: tags: c-myc tag in periplasmic extract (ELISA, FACS); FLAG and His tags in purified VHH (SPR, infection assays)
B5: VHH 011 (2B06) (VHH)
VHH: EVQLVESGGGLVQAGGSLRLSCAASGRTLSVYGTGWFRQAPGKEREFVAGISGTTGSTLYADSVKGRFTISRDNAKNTVYLQMNSLKSEDTALYYCAAGGRVYITTSSWAYWGQGTQVTVSS
notes: Llama single domain antibody; also called 57(#11); VHCDR3 57(#11); not shown: tags: c-myc tag in periplasmic extract (ELISA, FACS); FLAG and His tags in purified VHH (SPR, infection assays)
B6: VHH 023 (4E10) (VHH)
VHH: QVQLVESGGGLVQAGGSLRLSCVASSRTSSTYAMGWFRQGPGKERDFVAIISFGGTFYADSVKGRFTISRDNAKNTVYLQMNSLKPEDTAVYYCAAGRTLSKRADSYASWGQGTQVTVSS
notes: Llama single domain antibody; also called 70(#23); VHCDR3 70(#23); not shown: tags: c-myc tag in periplasmic extract (ELISA, FACS); FLAG and His tags in purified VHH (SPR, infection assays)
B7: VHH 018 (3E01) (VHH)
VHH: QVQLQESGGGLVQVGGSLRLSCVASGRAPSRYVMGWFRQAPGQEREFVAGIAWSGRAPYADSVKGRSTISRDNAKNTVYLQMNSLKPEDTGVYYCAGGEGAIRWTTLDAYDYWGQGTQVTVSS
notes: Llama single domain antibody; also called 49(#18); VHCDR3 49(#18); not shown: tags: c-myc tag in periplasmic extract (ELISA, FACS); FLAG and His tags in purified VHH (SPR, infection assays)
B8: VHH 020 (3H11) (VHH)
VHH: B7 VHH with A28T, S67F, T68V, N73S, P87S, R103L, L107P, D108G, D111N
notes: Llama single domain antibody; also called 48(#20); VHCDR3 48(#20); not shown: tags: c-myc tag in periplasmic extract (ELISA, FACS); FLAG and His tags in purified VHH (SPR, infection assays)
B9: VHH 019 (3E11) (VHH)
VHH: B7 VHH with G16S, A24T, A28T, G50A, A52S, S67F, R103K
notes: Llama single domain antibody; also called 47(#19); VHCDR3 47(#19); not shown: tags: c-myc tag in periplasmic extract (ELISA, FACS); FLAG and His tags in purified VHH (SPR, infection assays)
B10: VHH 002 (1B04) (VHH)
VHH: QVQLVESGGGLVQAGGSLRLSCAASGLTFVTYSMGWFRQAPGKEREFVAAHRWSGSAYYAEHADSVEGRFTISRDYAKNMLYLQMNSLKHEDTAVYYCAAGVGSAAQYRYWGRGTQVTVSS
notes: Llama single domain antibody; also called 76(#2); VHCDR3 76(#2); not shown: tags: c-myc tag in periplasmic extract (ELISA, FACS); FLAG and His tags in purified VHH (SPR, infection assays)
B11: VHH 008 (1H01) (VHH)
VHH: B10 VHH with L27R, V30G, A105E
notes: Llama single domain antibody; also called 78(#8); VHCDR3 78(#8); not shown: tags: c-myc tag in periplasmic extract (ELISA, FACS); FLAG and His tags in purified VHH (SPR, infection assays)
B12: VHH 016 (2H11) (VHH)
VHH: EVQLVESGGGLVQAGGSLRLSCAASGRTFAPGSMGWFRQAPGKEREFVAAHRWSGSAYYADYADSVEGRFTISRDYAKNMVYLQMNSLKPGDTAVYYCAAGVGSAAQYTYWGRGTQVTVSS
notes: Llama single domain antibody; also called 77(#16); VHCDR3 77(#16); not shown: tags: c-myc tag in periplasmic extract (ELISA, FACS); FLAG and His tags in purified VHH (SPR, infection assays)

How the values were obtained:
pCD163-SRCR4-7-huFc [1] = target: T2, pCD163-SRCR4-7-huFc (porcine, UniProt Q2VL90 372-818, limits assumed); assay: ELISA, periplasmic extract on coated antigen
T2 construct: also called pCD163:SRCR4-7-Fc; pCD163-SRCR4-7-Fc; not shown: human Fc (huFc)

pCD163-SRCR1-9-huFc [2] = target: T1, pCD163-SRCR1-9-huFc; assay: ELISA, periplasmic extract on coated antigen
pCD163-SRCR4-7-huFc [3] = target: T2, pCD163-SRCR4-7-huFc; assay: SPR (Biacore 3000), antigen amine-coupled on CM5, VHH injected, pH 7.4
Method: (§1) To assess the affinity of selected purified clones to pCD163, pCD163-SRCR1-9-huFc or pCD163-SRCR4-7-huFc proteins were coated by amine coupling on a CM5 sensor ship (GE Healthcare). Surface plasmon resonance (SPR) (Biacore 3000, GE Healthcare) was used to determine the binding kinetics of selected single domain antibodies at pH7.4. Approximately 2000 RU of pCD163-SRCR1-9-huFc or pCD163-SRCR4-7-huFc, proteins at 20 or 30 µg/ml in Acetate buffer pH 5.0 or pH 5.5 were immobilized onto a CM5 chip using the standard amine coupling procedure.
(§2) 1x HBS-EP pH 7.4, were utilized as a running buffer during binding kinetic measurements. Purified VHH were injected at 3-fold dilution (300 nM; 100 nM; 33 nM; 11 nM; 3.7 nM; 1.2 nM; 0.4 nM; 0 nM), for 120 s, at a flow rate of 30 µl/min. RU levels were restored to base levels after regeneration with 10 µl of 10 mM NaOH / 1 M NaCl and 10 µl of 10 mM Glycine pH 1.5 between samples. Fitting 1:1 binding with mass transfer was applied to the set sample curves using the simultaneous fitting option of the BIAevaluation software to calculate the kinetic constants of the antibody-antigen interactions including association rate (ka), dissociation rate (kd) and affinity (KD). Curves were removed from the fitting after visual examination of the residuals and considering the value of Chi2: a minimum of 4 curves were considered for the simultaneous fitting.

pCD163-SRCR1-9-huFc [4] = target: T1, pCD163-SRCR1-9-huFc; assay: as above
Method: as §1, §2

pCD163-SRCR1-9-huFc [5] = target: T1, pCD163-SRCR1-9-huFc; assay: SPR; lower end of the range, tied by Table 7 to VHH 012 on pCD163:SRCR1-9-Fc (1.03)
Method: as §1, §2

pCD163-SRCR1-9-huFc [6] = target: T1, pCD163-SRCR1-9-huFc; assay: SPR; upper end of the range, tied by Table 7 to VHH 017 on pCD163:SRCR1-9-Fc (75.20)
Method: as §1, §2

Binder	O.D. 450 (pCD163-SRCR4-7-huFc [1])	O.D. 450 (pCD163-SRCR1-9-huFc [2])	Kd (pCD163-SRCR4-7-huFc [3])	koff (pCD163-SRCR4-7-huFc [3])	kon (pCD163-SRCR4-7-huFc [3])	Kd (pCD163-SRCR1-9-huFc [4])	koff (pCD163-SRCR1-9-huFc [4])	kon (pCD163-SRCR1-9-huFc [4])	Kd (pCD163-SRCR1-9-huFc [5])	Kd (pCD163-SRCR1-9-huFc [6])
B1	4.37 O.D. 450	1.18 O.D. 450	8.01 nM	0.00442 s⁻¹	551000 M⁻¹ s⁻¹	14.7 nM	0.00583 s⁻¹	396000 M⁻¹ s⁻¹	–	–
B2	0.416 O.D. 450	0.109 O.D. 450	9.26 nM	0.0227 s⁻¹	2.46e+06 M⁻¹ s⁻¹	7.08 nM	0.0178 s⁻¹	2.52e+06 M⁻¹ s⁻¹	–	–
B3	3.14 O.D. 450	0.535 O.D. 450	1.51 nM	0.00426 s⁻¹	2.83e+06 M⁻¹ s⁻¹	1.03 nM	0.00617 s⁻¹	5.97e+06 M⁻¹ s⁻¹	1 to 75 nM	–
B4	0.116 O.D. 450	0.137 O.D. 450	22.6 nM	0.00345 s⁻¹	153000 M⁻¹ s⁻¹	75.2 nM	0.083 s⁻¹	1.1e+06 M⁻¹ s⁻¹	–	1 to 75 nM
B5	0.288 O.D. 450	0.106 O.D. 450	34.5 nM	0.0151 s⁻¹	437000 M⁻¹ s⁻¹	71.4 nM	0.01 s⁻¹	140000 M⁻¹ s⁻¹	–	–
B6	4.1 O.D. 450	0.577 O.D. 450	1.52 nM	0.00755 s⁻¹	4.96e+06 M⁻¹ s⁻¹	3.1 nM	0.00927 s⁻¹	2.99e+06 M⁻¹ s⁻¹	–	–
B7	0.938 O.D. 450	1.03 O.D. 450	42 nM	0.0121 s⁻¹	288000 M⁻¹ s⁻¹	16.5 nM	0.0134 s⁻¹	814000 M⁻¹ s⁻¹	–	–
B8	3.36 O.D. 450	2.93 O.D. 450	18.2 nM	0.00843 s⁻¹	462000 M⁻¹ s⁻¹	9.15 nM	0.00865 s⁻¹	945000 M⁻¹ s⁻¹	–	–
B9	2.43 O.D. 450	2.48 O.D. 450	21.1 nM	0.0103 s⁻¹	487000 M⁻¹ s⁻¹	8.77 nM	0.0102 s⁻¹	1.16e+06 M⁻¹ s⁻¹	–	–
B10	2.39 O.D. 450	0.235 O.D. 450	19 nM	0.0149 s⁻¹	787000 M⁻¹ s⁻¹	20 nM	0.0108 s⁻¹	539000 M⁻¹ s⁻¹	–	–
B11	2.65 O.D. 450	0.22 O.D. 450	34.7 nM	0.00542 s⁻¹	156000 M⁻¹ s⁻¹	–	–	–	–	–
B12	4.15 O.D. 450	0.263 O.D. 450	30 nM	0.00674 s⁻¹	224000 M⁻¹ s⁻¹	44.3 nM	0.00972 s⁻¹	219000 M⁻¹ s⁻¹	–	–
